Reference: PMC10070186, “Unusual peptide-binding proteins guide pyrroloindoline alkaloid formation in crocagin biosynthesis” (Nature Chemistry, 2023)

Tests used:
Conditions in all cases: both partners purified
[1] = target: T1, CgnE (Chondromyces crocatus CM c5); test: MST; microscale thermophoresis of two components; which one was titrated is told only in Fig. 3c
T1 construct: CgnE of the crocagin BGC of Chondromyces crocatus CM c5; Construct details are in the Supplementary Methods; source: purified (HisTrap, His-SUMO removed with TEV protease, Superdex 200)

[2] = target: T2, CgnB (Chondromyces crocatus CM c5); test: as above
T2 construct: CgnB of the crocagin BGC of Chondromyces crocatus CM c5; Construct details are in the Supplementary Methods; source: purified (HisTrap, His-SUMO removed with TEV protease, Superdex 200)

[3] = target: T3, CgnC (Chondromyces crocatus CM c5); test: SEC; size-exclusion chromatography of the single proteins in solution
T3 chain: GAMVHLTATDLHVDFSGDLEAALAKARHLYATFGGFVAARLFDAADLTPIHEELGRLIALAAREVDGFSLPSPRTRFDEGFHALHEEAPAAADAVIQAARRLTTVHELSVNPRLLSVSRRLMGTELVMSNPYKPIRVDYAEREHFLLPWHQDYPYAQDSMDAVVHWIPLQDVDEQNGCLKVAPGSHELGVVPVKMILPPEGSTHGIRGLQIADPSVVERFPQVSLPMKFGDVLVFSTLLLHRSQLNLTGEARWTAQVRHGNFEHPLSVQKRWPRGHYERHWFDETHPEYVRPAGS

[4] = target: T2, CgnB; test: MST; microscale thermophoresis in the presence of a constant, large excess of CgnE (250 µM)
[5] = target: T4, CgnE in the presence of CgnA (400 µM) (Chondromyces crocatus CM c5); test: MST; microscale thermophoresis in the presence of CgnA (400 µM)
T4 construct: CgnE of Chondromyces crocatus CM c5, as m4; CgnA of Chondromyces crocatus CM c5, 21 amino acids, as m1; also called CgnA-CgnE; source: purified CgnE mixed with 400 µM CgnA

[6] = target: T5, CgnB in the presence of CgnA (400 µM) (Chondromyces crocatus CM c5); test: as above
T5 construct: CgnB of Chondromyces crocatus CM c5, as m2; CgnA of Chondromyces crocatus CM c5, 21 amino acids, as m1; also called CgnA-CgnB; source: purified CgnB mixed with 400 µM CgnA

B1: CgnA leader peptide (CgnA^LP) (peptide)
chain: MKKTIKQISAGDRSKKGN
Question: What does the source list for B1?
Answer: Kd [1]: 514 µM; fold reduction in affinity compared to CgnA [2]: 8 fold

B2: CgnC (enzyme)
chain: T3 chain
modifications: sequence from Supplementary Table 8 (the excerpt mark inside it is read as contiguous); N-terminal GA is a cloning remnant; dimer by size-exclusion chromatography / sequence from Supplementary Table …
Question: For B2, which “stoichiometry N” value [3] is on record?
Answer: Its value is 2.

B3: CgnC in the presence of a constant, large excess (250 µM) of CgnE (complex)
chain 1: T3 chain
chain 2: GMGGRRTIGIRSGEGAIMNASDFYALLRGRGMPVVVDDAEAAAVVSELGFRTVPFEAFDFDSPSEDPALVIVAQMGNVDALHGLWERSGTPLMHLALAKFDGGLSRLRAGLARVLAVDTDAALKRRAEAYEQLFSSASVEIASGEGVLRCHIGDEVEVGNCGDTLEQGFLYSVAEFLEASVVNLEGERSTFWVEGELPFDGFIHLSNSAALKERWGGMLDEFMRRSREGANLVRFADNVIDRLVVGGVDVTSALAGLSQGEERGMAATEFGLGCADAEAAEPFGVNSLLHKSAGGAYIGIGKGLRIPHIDFIARGATIRFIPAAEG
modifications: CgnC is a dimer and CgnE a monomer in solution when alone; stoichiometry of the complex is not given
Question: For B3, which Kd [4] is on record?
Answer: The Kd was 28 µM.

B4: CgnC (enzyme)
chain: T3 chain
modifications: sequence from Supplementary Table 8 (the excerpt mark inside it is read as contiguous); N-terminal GA is a cloning remnant; dimer by size-exclusion chromatography
Question: Which results are given for B4?
Answer: Kd [1]: ~1 µM; Kd [2]: ~6 µM; fold increase of the CgnC–CgnE affinity on addition of CgnA (400 µM) [5]: 2 fold; Kd [6]: ~0.1 µM
